From the supplement of paper PMC9170038

Tested on: MS2 coat protein
Assay: apparent KD of MS2 coat protein; designed switch direction (-1 OFF switch, 1 ON switch): 1; higher = weaker reporter binding
How it was run: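 Designed RNA switches sharing common flanks were transcribed on Illumina chips by stalled E. coli RNA polymerase. They were titrated with SNAP-549-labelled MS2 coat protein, from 0.7 or 1.5 nM doubling to 3 µM, in Tris-HCl pH 7.5 buffer with KCl, MgCl2, BSA, DTT, tRNA and Tween-20. Titrations ran without input, with 200 uM small-molecule ligand, or with an oligonucleotide input. The apparent KD of each design is the median over its clusters, after curve-fitting of normalised cluster fluorescence.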

[1] = input ligand: microRNA oligo, concentration not stated
[2] = Eterna round: R95, input ligand: FMN 200 uM
[3] = Eterna round: R95, input ligand: microRNA oligo, concentration not stated
[4] = Eterna round: R95, input ligand: none

Sequence: UUUAUAUUCAGAGGAUAUUAAUGUUGUAUAAUAUAAGAAGGCUGUUUGUUUUGUAAAGUUAUUAUACAUGAGGAUCACCCAUGU [JR_SSNG1_Sub082] (Eterna round: R96, puzzle: Same State NG 1)
- apparent KD of MS2 coat protein [1]: 0.0155 µM

Sequence: GAGGAUGAUUUACAGGAUAUAUAGGAGAUGACAUGAGGAUCACCCAUGUAAGAGAGAGGAGGGAGAUAGAAGGGUAAGGGAUGUG [JR_SS2_Sub42] (puzzle: Same State 2)
- apparent KD of MS2 coat protein [2]: 0.0443 µM
- apparent KD of MS2 coat protein [3]: 0.0422 µM
- apparent KD of MS2 coat protein [4]: 0.0595 µM

Sequence: AACAAUCUAUCUGAGGAUAUCAUGAAAUAAACAUGAGGAUCACCCAUGUGCAGGAAUACUGCAUAUGAGAAGGCAGAUAGAUUGA [salish99_ss2_r3_042] (puzzle: Same State 2)
- apparent KD of MS2 coat protein [2]: 0.086 µM
- apparent KD of MS2 coat protein [3]: 1.04 µM
- apparent KD of MS2 coat protein [4]: 4.05 µM

Sequence: AAAUCAAGUAAAACAUGAGGAUCACCCAUGUGAGAAGCUUCCAAGGAUAUGGUAUGCAUGGAAACCCAGAAGGUGGUCAAAGCA [Eternabot solution 29] (Eterna round: R96, puzzle: Same State NG 3)
- apparent KD of MS2 coat protein (input ligand: FMN 200 uM): 0.247 µM
- apparent KD of MS2 coat protein [1]: 0.181 µM
- apparent KD of MS2 coat protein (input ligand: none): 0.272 µM

Sequence: GGAGCCGGCACCGAGGAUAUUCAUAUUAAAACAUGAGGAUCACCCAUGUAGGCCAGAAGGCCUUGGGAGAAGGCGGACCGGCUCG [Xeonanis - 4] (Eterna round: R96, puzzle: Same State 2)
- apparent KD of MS2 coat protein (input ligand: FMN 200 uM): 0.0274 µM
- apparent KD of MS2 coat protein [1]: 0.165 µM
- apparent KD of MS2 coat protein (input ligand: none): 0.287 µM

Sequence: UGGUACAUGGGAGGAUAUGGGUUGAUAACAUGAGGAUCACCCAUGUUAAAUAUGCCGAGAGGCAACUAGAAGGCCCAUGUACCU [JL SSNG1 3.00] (Eterna round: R96, puzzle: Same State NG 2)
- apparent KD of MS2 coat protein (input ligand: FMN 200 uM): 0.0285 µM
- apparent KD of MS2 coat protein [1]: 0.38 µM
- apparent KD of MS2 coat protein (input ligand: none): 0.644 µM

Sequence: AGCAGAGAAAUAGGAUAUGGCUGAGACAUGACGGCGGUACAUGAGGAUCACCCAUGUCCGCAAAGCCAGAAGGGUUUUGAAUGU [Ticecexe] (Eterna round: R96, puzzle: Same State NG 2)
- apparent KD of MS2 coat protein (input ligand: FMN 200 uM): 0.0137 µM
- apparent KD of MS2 coat protein [1]: 0.0165 µM
- apparent KD of MS2 coat protein (input ligand: none): 0.0334 µM

Sequence: UUCUCAUUUACAUGAGGAUCACCCAUGUUUUUAUGUCAGAGAUAGGAUAUAGUUCUCUCGUUUUUCUAGAAGGAUCUUUUUAUU [JR_SSNG3_Sub086] (Eterna round: R96, puzzle: Same State NG 3)
- apparent KD of MS2 coat protein (input ligand: FMN 200 uM): 0.0659 µM
- apparent KD of MS2 coat protein [1]: 0.0413 µM
- apparent KD of MS2 coat protein (input ligand: none): 0.0646 µM

Sequence: GUGGUCUGACAUGAGGAUCACCCAUGUGGAAUAAAUACGGGUCAGGAUAUCUUGAGGAUCACCCAAGAGAAGGGACGGAUUGUU (Eterna round: R96, puzzle: Same State NG 3)
- apparent KD of MS2 coat protein (input ligand: FMN 200 uM): 0.024 µM
- apparent KD of MS2 coat protein [1]: 0.0235 µM
- apparent KD of MS2 coat protein (input ligand: none): 0.0351 µM

Sequence: GGUAGGUUACUACCAGACAUGAGGAUCACCCAUGUAAGUGGGAAGGAUAUGGUACCUUUUAGGUACCAGAAGGUCCAUAUAGUU [JL SSNG3 1.43] (Eterna round: R96, puzzle: Same State NG 3)
- apparent KD of MS2 coat protein (input ligand: FMN 200 uM): 0.253 µM
- apparent KD of MS2 coat protein [1]: 0.429 µM
- apparent KD of MS2 coat protein (input ligand: none): 1.08 µM

Sequence: UUACUCAUGUAAGGAUAUGCAGCCGAAACGGCUGCAGAAGGUACUAAAAUACAUGAGGAUCACCCAUGUCUUUUUAAUUUAGAC [Mat - Same State NG 1 - JL mod - D83] (Eterna round: R96, puzzle: Same State NG 1)
- apparent KD of MS2 coat protein (input ligand: FMN 200 uM): 0.0584 µM
- apparent KD of MS2 coat protein [1]: 0.0284 µM
- apparent KD of MS2 coat protein (input ligand: none): 0.0333 µM

Sequence: AGUCCAGCAUAAGCUGGACAAAAGCAUGUACAUGAGGAUCACCCAUGUUCAUGUACAAGCUUUUUGCUCGUCAAAAG [Mat - hsa-mir-208a - Mod of JL - 71] (puzzle: Sensor for hsa-mir-208a)
- apparent KD of MS2 coat protein [2]: 0.215 µM
- apparent KD of MS2 coat protein [3]: 0.0226 µM
- apparent KD of MS2 coat protein [4]: 0.297 µM

Sequence: GAUUAACAUGAGGAUCACCCAUGUCGUUUUAUGGGAGGAUAUACGUGGACCGUAGUCCGCGUAGAAGGCCUAAUUG [JL-ss1-3.23 janelle mod] (puzzle: Same State 1)
- apparent KD of MS2 coat protein [3]: 0.0973 µM

Sequence: ACAUGAGAGAAAGGAUAUCUUGUACCUACAUGUGACAUGAGGAUCACCCAUGUGGUAAGUAUGACAGAGAAGGUUCAGAUAUGU [Equivalance 71 - Jieux - Same State NG 2] (Eterna round: R96, puzzle: Same State NG 2)
- apparent KD of MS2 coat protein (input ligand: FMN 200 uM): 0.0387 µM
- apparent KD of MS2 coat protein [1]: 0.0611 µM
- apparent KD of MS2 coat protein (input ligand: none): 0.0863 µM

Sequence: AUAAGAAACACAGGAUAUACCGCACUUAACACGGUAGAAGGGUGGGACAUGAGGAUCACCCAUGUGGUCCGGGCGCCGGACCGC [Geenusrior] (Eterna round: R96, puzzle: Same State NG 1)
- apparent KD of MS2 coat protein (input ligand: FMN 200 uM): 0.711 µM
- apparent KD of MS2 coat protein [1]: 0.0278 µM
- apparent KD of MS2 coat protein (input ligand: none): 0.329 µM

Sequence: GACAAUCUAUCUGAGGAUAUCAUGAGAAGAACAUGAGGAUCACCCAUGUGCAGGAAAACUGCAUAUGAGAAGGCAGAUAGAUUGA [Mat - Same State 2 - Mod - D16] (puzzle: Same State 2)
- apparent KD of MS2 coat protein [2]: 0.0437 µM
- apparent KD of MS2 coat protein [3]: 1.6 µM
- apparent KD of MS2 coat protein [4]: 1.82 µM

Sequence: GCCGCAAGGGCAGGAUAUGGGUCCAGAGUGCAAAUGCACUCCGGUACAUGAGGAUCACCCAUGUCCCAGAAGGGCCCAAGCGGC [Bilaatdi] (Eterna round: R96, puzzle: Same State NG 2)
- apparent KD of MS2 coat protein (input ligand: FMN 200 uM): 0.0128 µM
- apparent KD of MS2 coat protein [1]: 0.144 µM
- apparent KD of MS2 coat protein (input ligand: none): 0.163 µM

Sequence: ACGUGGAUAUCACAGGAUAUACUCAUAACUACAUGAGGAUCACCCAUGUAGCGGUAUUCCGAUGCGUAGAAGGGUGAUGGACCAC [Same State 2 - Mod of Artece v.2] (puzzle: Same State 2)
- apparent KD of MS2 coat protein [2]: 0.0139 µM
- apparent KD of MS2 coat protein [3]: 0.0149 µM
- apparent KD of MS2 coat protein [4]: 0.0174 µM

Sequence: GGUAGGUUACUACCAUACAUGAGGAUCACCCAUGUAAAUGGGAAGGAUAUGGUACCUAUUUGGUACCAGAAGGUCCAAUUAAUU [JL Fiskers NG3ss - 2 mod 3] (Eterna round: R96, puzzle: Same State NG 3)
- apparent KD of MS2 coat protein (input ligand: FMN 200 uM): 0.148 µM
- apparent KD of MS2 coat protein [1]: 0.446 µM
- apparent KD of MS2 coat protein (input ligand: none): 0.706 µM

Sequence: AGUCCAGCGAAAGCUGGACAAAGGCAUGUACAUGAGGAUCACCCAUGUUCAUGUACAAGCUUUUUGCUCGUCUUAAA [JL mod - D95 - 3] (puzzle: Sensor for hsa-mir-208a)
- apparent KD of MS2 coat protein [2]: 0.147 µM
- apparent KD of MS2 coat protein [3]: 0.014 µM
- apparent KD of MS2 coat protein [4]: 0.194 µM

Sequence: AGUCCAGCGAAAGCUGGACAAAAGCAUGUACAUGAGGAUCACCCAUGUUCAUGUACAAGUUUUUUGCUCGUUUUAAA [JL mod - D95 - 18] (puzzle: Sensor for hsa-mir-208a)
- apparent KD of MS2 coat protein [2]: 0.0378 µM
- apparent KD of MS2 coat protein [3]: 0.0103 µM
- apparent KD of MS2 coat protein [4]: 0.0458 µM

Sequence: AUUAGUUGCGGGCAGGAUAUGUAUUAAAAUACAUGAGGAUCACCCAUGUGCGGGUAUAACACCCGACAGAAGGGCCAAUCGCGAC [Mat - Same State 2 - Mod of UCT - D93] (puzzle: Same State 2)
- apparent KD of MS2 coat protein [2]: 0.0254 µM
- apparent KD of MS2 coat protein [3]: 0.25 µM
- apparent KD of MS2 coat protein [4]: 0.409 µM

Sequence: UCAUGGUUUUUGCUCGUUUUAUGUGUUGAACAUGAGGAUCACCCAUGUAUUGUACGAUCCAGUUAGAUGGUGGUUUG [JR_SHM208A_Sub043] (puzzle: Sensor for hsa-mir-208a)
- apparent KD of MS2 coat protein [2]: 0.235 µM
- apparent KD of MS2 coat protein [3]: 0.0858 µM
- apparent KD of MS2 coat protein [4]: 0.469 µM

Sequence: AAUAAACAUGAGGAUCACCCAUGUAGUGCUUUAGCAGGAUAUGUGAGGAUCAAAUCCAUGGCAGAAGGGUUAUGGC [Inondiorbi] (puzzle: Same State 1)
- apparent KD of MS2 coat protein [2]: 0.0201 µM
- apparent KD of MS2 coat protein [3]: 0.043 µM
- apparent KD of MS2 coat protein [4]: 0.0671 µM

Sequence: GAGUAGUUAAAAGGAUAUUGAUUAUUGUAGGAUCAAGAAGGUUUUAACAUGAGGAUCACCCAUGUAGGACUAUUCCUGUGUAUC [Parity 90 - Jieux - Same State NG 1] (Eterna round: R96, puzzle: Same State NG 1)
- apparent KD of MS2 coat protein [1]: 0.012 µM

Sequence: AGUCCAGCCAGAGCUGGACAAAAGCAUGUACAUGAGGAUCACCCAUGUUCAUGUACAAGCUUUUUGCUCGUCUUAAA [Mat - hsa-mir-208a - Mod of JL - 55] (puzzle: Sensor for hsa-mir-208a)
- apparent KD of MS2 coat protein [2]: 0.545 µM
- apparent KD of MS2 coat protein [3]: 0.015 µM

Sequence: GAGUAGUUGAAAGGAUAUGCAUUGUUAUAGAAUGCAGAAGGUUCUAACAUGAGGAUCACCCAUGUAGGACUAUUCCUGUGUAUC [Parity 80 - Jieux - Same State NG 1] (Eterna round: R96, puzzle: Same State NG 1)
- apparent KD of MS2 coat protein [1]: 0.00783 µM

Sequence: CUGCUCGUGUGAGGAUAUGCCGCCGUUUCGGCUGCAGAAGGUGCUACGUUACAUGAGGAUCACCCAUGUCUCUGUUGUUUCGUG [salish99_SSNG1_r04_944] (Eterna round: R96, puzzle: Same State NG 1)
- apparent KD of MS2 coat protein (input ligand: FMN 200 uM): 0.0207 µM
- apparent KD of MS2 coat protein [1]: 0.0158 µM
- apparent KD of MS2 coat protein (input ligand: none): 0.0228 µM

Sequence: GGCCAGAGUCAAGGAUAUGCUACCGUUUCGGUAGCAGAAGGUGAUCACAUGAGGAUCACCCAUGUAUACUGCGAGAGUAGGGCC [JL SSNG1 3.66] (Eterna round: R96, puzzle: Same State NG 1)
- apparent KD of MS2 coat protein (input ligand: FMN 200 uM): 0.0945 µM
- apparent KD of MS2 coat protein [1]: 0.0236 µM
- apparent KD of MS2 coat protein (input ligand: none): 0.197 µM

Sequence: AUAAAUAACACAGGAUAUCCGCACGAGUAGUACGGAGAAGGGUGAACGUCGGCUCUCGCCAACAUGAGGAUCACCCAUGUAAAA [Usesesana] (Eterna round: R96, puzzle: Same State NG 1)
- apparent KD of MS2 coat protein (input ligand: FMN 200 uM): 1.16 µM
- apparent KD of MS2 coat protein [1]: 0.432 µM
- apparent KD of MS2 coat protein (input ligand: none): 0.734 µM

Sequence: UAGGAACAUGAGGAUCACCCAUGUACCUCAUAUGGAGAAACACAGGAUAUGCUCAGCGAAAGAGAGCAGAAGGGUGAAGAGAGG [Default title] (Eterna round: R96, puzzle: Same State NG 3)
- apparent KD of MS2 coat protein (input ligand: FMN 200 uM): 0.0236 µM
- apparent KD of MS2 coat protein [1]: 0.0276 µM
- apparent KD of MS2 coat protein (input ligand: none): 0.0316 µM
